Source: the supplement of paper PMC10724198
± gives the standard deviation of the averaged measurements.

tested on: Saccharomyces cerevisiae; experiment: protein stability index of tFT-peptide fusion (C-terminal peptide) (PSI (0-1 scale)); higher = more stable (slower turnover); details: genetic background: wild type; temperature: 30 C
Method: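 Multiplexed protein stability (MPS) profiling in S. cerevisiae. Random 12-aa peptides (tFT-X12 library) are fused to the C-terminus of a sfGFP-mCherry tandem fluorescent timer, after mCherry and a GGGS linker. Cells are FACS-sorted into 8 mCherry/sfGFP bins and deep-sequenced. The protein stability index (PSI) is the read-weighted bin average, scaled from 0 (unstable) to 1 (stable). Only peptides with >10 reads are reported; cells were grown at 30 °C in SC-His with glucose.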
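Also: PSI is a weighted mean of sequencing reads over stability bins, variants kept only with over 10 reads, mCherry proximal and sfGFP distal, peptide attached via GGGS linker.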

In order of rising protein stability index:
1. CVLVVCRFTGDW  0.5083 ± 0.0038
2. CVAFLAGIVSFL  0.525 ± 0.019
3. DSILYKKYKQLG  0.559 ± 0.024
4. DQNNSQIRHEQP  0.575 ± 0.03
5. DLGVCCLLGDFG  0.577 ± 0.0072
6. DVVPYLGYYFFC  0.578 ± 0.01
7. EHFGFYFIFNLY  0.58 ± 0.034
8. DSGRRVTLLVFV  0.594 ± 0.041
9. DLAPLSFVHLLL  0.596 ± 0.037
10. CVERVGSTPMDS  0.607 ± 0.053
11. CSRTSKKMSIGG  0.613 ± 0.019
12. CVQVMTWAMLEC  0.618 ± 0.022
13. DLWDDVAYVIVA  0.619 ± 0.039
14. DNARCKSPRSLN  0.621 ± 0.092
15. DLRSSDPVAGSL  0.623 ± 0.011
16. DIHVNLHKSRKM  0.626 ± 0.027
17. CVCPLPLDSPVS  0.629 ± 0.081
18. DRWIGLWGGLWV  0.63 ± 0.018
19. DSMLTYIRSTKD  0.633 ± 0.007
20. DRHVPPASYLAD  0.6343 ± 0.0057
21. EAGGAQGPTGEL  0.634 ± 0.02
22. DFFPVSGLANEH  0.636 ± 0.092
23. EGPLVRGSGVDV  0.637 ± 0.043
24. EFFVLVHLVDPK  0.638 ± 0.041
25. CWGEGGRTVING  0.639 ± 0.03
26. DSASFAFCCFCD  0.639 ± 0.023
27. DAPSPPLTGVSR  0.645 ± 0.01
28. CVLLSEVNRTMG  0.646 ± 0.041
29. DNWHRSFSTYPV  0.647 ± 0.099
30. DVDWVLTLGCLG  0.647 ± 0.034
31. DFVLKQIARINL  0.648 ± 0.021
32. CVVRADGVVGIL  0.649 ± 0.012
33. ECNESSACRNHY  0.65 ± 0.032
34. DSSDIELSTRTL  0.651 ± 0.027
35. CVCGRFGGELGV  0.653 ± 0.1
36. EGGVERIHKPSS  0.654 ± 0.061
37. DMYSVTRDHVMI  0.655 ± 0.04
38. DRLGDCRKPRPF  0.657 ± 0.099
39. DNMKLILNGYNL  0.658 ± 0.03
40. DFVKVVPNVVDL  0.659 ± 0.078
41. DRNVMNGFTRPG  0.659 ± 0.034
42. DQESTRLRWGTS  0.66 ± 0.041
43. EGGETDRSLMVV  0.66 ± 0.014
44. DVGGDGDCVVSS  0.661 ± 0.0024
45. DVLSLFCKFFGV  0.661 ± 0.075
46. EGVSGVSLFRVL  0.661 ± 0.051
47. DGGRPFQKLYVA  0.663 ± 0.014
48. EGDACCGVDGKR  0.663 ± 0.13
49. EGGMLNAVRPRS  0.663 ± 0.048
50. DGTICAITYLTS  0.6653 ± 0.0017
51. EGTKEKGEKRRR  0.666 ± 0.065
52. DHNTRGYQTKSR  0.667 ± 0.031
53. EGAVGMSGSLGV  0.668 ± 0.063
54. DGCRLCRRFIFG  0.669 ± 0.013
55. CVSRLIPGDKHE  0.67 ± 0.032
56. DLPRLLLSPSLP  0.67 ± 0.058
57. CSSLLSSFSLRL  0.671 ± 0.038
58. DDRFNVGNLPQG  0.672 ± 0.046
59. DALGRSNGPPRV  0.673 ± 0.027
60. DLRPSLPHPTQP  0.673 ± 0.037
61. DTNRALMRKSHS  0.673 ± 0.0088
62. EHCGRGMGSGAA  0.673 ± 0.012
63. DPPFPSGPPLPL  0.6742 ± 0.0061
64. DKKKRRERKDRT  0.6746 ± 0.0061
65. DVKNMVWKTIEL  0.6746 ± 0.0065
66. EDKETETSVNQK  0.6758 ± 0.0059
67. DVGRDVCEFRDR  0.677 ± 0.045
68. DKLSSRIPCSPS  0.679 ± 0.0077
69. DNGVLVFLPVLD  0.6791 ± 0.0066
70. CWGAGGRTVING  0.68 ± 0.034
71. DDGRDTLCGRGS  0.68 ± 0.042
72. DIHSSQVPSMFA  0.68 ± 0.076
73. DIKATRTYNHKV  0.68 ± 0.029
74. DRGKGEKGKKAD  0.6797 ± 0.0036
75. EGAGGVVVEGLG  0.68 ± 0.028
76. EGCGLQRGMGVL  0.681 ± 0.0096
77. DQDVPLWGLVSM  0.682 ± 0.054
78. DSESSLPSLPHT  0.682 ± 0.015
79. EGRRCQGGVWRE  0.6818 ± 0.0061
80. DLGLSYCGYAML  0.683 ± 0.064
81. DSVQALDGRAGI  0.683 ± 0.046
82. EGGRGYGRGRYG  0.685 ± 0.051
83. DIKKRQNIKDRK  0.686 ± 0.051
84. DRYGVYPIYGKF  0.6855 ± 0.0054
85. DSHRRPGSPPPL  0.688 ± 0.11
86. DLFPTLFFIRSR  0.689 ± 0.073
87. EARPQAMPGRHP  0.689 ± 0.024
88. EGGRFTALSSTS  0.689 ± 0.039
89. CTMEDLGNCEGI  0.691 ± 0.0082
90. DCPLPPRYRAPL  0.691 ± 0.043
91. DFSPSPWQFTCW  0.692 ± 0.071
92. DIIGMPLLMKKK  0.693 ± 0.03
93. EGGGWGVGSEVG  0.694 ± 0.035
94. DVELTGCCLSRT  0.696 ± 0.026
95. EAQGVEMMGWAV  0.696 ± 0.025
96. EGTTRDGERCRT  0.696 ± 0.0056
97. DCKTCVVGCELF  0.697 ± 0.043
98. DSPPMTALITDF  0.697 ± 0.019
99. DVYDLGLPINMS  0.698 ± 0.045
100. DSPRTFWGPTQK  0.699 ± 0.055
101. DCKVLIGQYQRE  0.7 ± 0.0098
102. DPPPHPPPASPT  0.7 ± 0.1
103. DGALWGTDRGAG  0.701 ± 0.064
104. EIEYVEPSIPET  0.702 ± 0.046
105. DNSIWPSALCAP  0.703 ± 0.047
106. DRRRGVGESSFG  0.703 ± 0.025
107. DWSHLLTSHAII  0.703 ± 0.041
108. DGWVAVGRALGG  0.704 ± 0.028
109. EDSRATNERGRT  0.704 ± 0.049
110. CVYGWVGRGWGA  0.707 ± 0.079
111. EDKVHQSSACHQ  0.707 ± 0.03
112. DGGGGGGGVAGD  0.708 ± 0.051
113. DAFWLRSRRSEG  0.712 ± 0.0039
114. DETCVGSWNSCG  0.712 ± 0.044
115. DMYLPSSSHPPP  0.712 ± 0.021
116. DLPRCPPSPPPS  0.713 ± 0.046
117. CWCGLGVWAFGV  0.715 ± 0.039
118. DPVLPSVRVSLG  0.715 ± 0.068
119. DACPLAEGGGAA  0.717 ± 0.035
120. DAVWTRGGEGVW  0.718 ± 0.019
121. DDSSLLMLNCLE  0.71964 ± 0.00048
122. DEEVGWGRGVGW  0.72 ± 0.074
123. DRCLFRFNLWGG  0.7203 ± 0.0063
124. DCFISPRIFRPK  0.721 ± 0.023
125. DRFPGLILVSFP  0.73 ± 0.05
126. DGLWIYNINDGH  0.7314 ± 0.0019
127. DKKKNKDQKEKI  0.731 ± 0.029
128. CWVNDGCPICGW  0.732 ± 0.072
129. DQRCRLQGRYQR  0.733 ± 0.12
130. CYCPPPGMPVPF  0.736 ± 0.095
131. DKTPRSHKKTAE  0.738 ± 0.022
132. EGLRLWGRCCWG  0.74 ± 0.048
133. EERAGTRGGRGR  0.743 ± 0.13
134. EGKRGKTGVRRI  0.743 ± 0.055
135. EEFTSRAFRISW  0.744 ± 0.13
136. EFERWCGLGRFG  0.744 ± 0.096
137. DVHPPPPAPPPP  0.747 ± 0.12
138. DASELLGRPVVL  0.748 ± 0.012
139. EFVFLLSNTFNS  0.749 ± 0.03
140. DGFGVARGVSWG  0.752 ± 0.035
141. EGTIDSGRHSLK  0.752 ± 0.15
142. DRPPPPPRSSPL  0.753 ± 0.046
143. EDNRTSEMFVFY  0.753 ± 0.14
144. DQVWGGSEDNTV  0.76 ± 0.052
145. CSSVTEFWWAVF  0.766 ± 0.1
146. DNEMLQICRSRW  0.774 ± 0.029
147. DVLVHETFLCRL  0.774 ± 0.016
148. DRQGMIGLKYVK  0.776 ± 0.11
149. DQRLKKKTVQMK  0.778 ± 0.076
150. CWSSPSFSLLFP  0.779 ± 0.028
151. EGQVGVGWGWVR  0.786 ± 0.12
152. DTDLWFASVFSS  0.793 ± 0.022
153. DRNGKIGTFKKV  0.795 ± 0.12
154. DSQAEPGLSARL  0.796 ± 0.059
155. DLTPWLAPFRER  0.797 ± 0.097
